According to the supplement of paper PMC12764529:
± gives the half width of the 95% confidence interval.

experiment: folding stability dG unfold (combined trypsin and chymotrypsin); higher = more stable
Outline: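 Mini-proteins designed to be under 80 residues and free of cysteine were carried in a PA-tagged cDNA display construct and digested with trypsin and with chymotrypsin. Each protease was applied at 11 threefold-diluted concentrations, alongside a no-protease condition, before sequencing. K50 came from Bayesian fitting of the sequencing counts, and unfolding free energy was obtained by comparing it with a sequence-predicted unfolded-state K50 and a shared folded-state K50, for each protease separately or for both together. Designs were retained only if their AlphaFold2 dimer inter-PAE exceeded 15.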

Point of comparison: “SPIILPGASTVTINATVTVEPRDPATGTVLSSRDLPVPVTVTTNADGTVTITVDVPADVPADAAVTVDLTSA [r9_90_JUSTAS]”, “folding stability dG unfold” value -1.41 ± 0.418 kJ/mol. Against it:
- SAGGSAGGMVTFDTPEELEALIEELLARHPRDVPVDVTIESEDSRYTIKVAPERVEEISESEGSSAGGSAGG [r6_289_JUSTAS] — lower, < -4.18 kJ/mol
- SAGGSQEFKFEILVPFDSPEEAKEEAEEIAKILQDHGLDVKVKVERDPNGAVKVPPTIRVDPEDGRPLSAGG [r13_697_TrROS] — within error, -0.988 ± 1.3 kJ/mol
- SAGGSSIEEIKEALKKGYNIKITPTTGTSTLVPVEELIKDPNITPETSLSDLGIKEITLIPPKNGKLVSAGG [r13_587_JUSTAS] — within error, -1.07 ± 1.05 kJ/mol
- SAGGSAGGSAGKSPSESEVVITPETGVVEENGVKIKVTLTITTYSPSSTVTSTTKDPKLLSAGGSAGGSAGG [r11_551_JUSTAS] — within error, -1.49 ± 0.628 kJ/mol
- SAGGANLKIDIERHPGNGNINATIKFDGEEITVPATLSDIEEIIDEIIRVKPVPYYEKDGKLKPHWASAGGS [r8_332_TrROS] — lower, < -4.18 kJ/mol
- SAPVKDKNGKKREVEIHIWVPEEERKKNGTPEQIKWLARERARAAGLKPDRIKEVKIKIMPPEDMPEGFSAG [r14_446_TrROS] — lower, < -4.18 kJ/mol
- SAGGSAGGSATIKIKVPPGEPYMIRIRWPDGKSHEHNVPPGEEITIPPDNFDGITPIEIQPYSAGGSAGGSA [r18_210_TrROS] — within error, 0.459 ± 2.34 kJ/mol
- SDLRNMPIEELAKRIAREHGIEDVKVEVSRTGDSLTIPIEIRDPEQGMKYKVMIMVDPPDDGRIGIGVERSA [r9_1042_TrROS] — within error, 0.0926 ± 1.76 kJ/mol
- SAGGSAGGSAGGMKIVLKVPENNPEAEKEAKKLKEEPGLKEVEVEFIPKSLVPEEPVLLSAGGSAGGSAGGS [r10_1110_JUSTAS] — lower, < -4.18 kJ/mol
- SAGGSAGGSAGMVFPVDGKEVVIDRGADDALRVTVFGPDGSASEAVFPGKDIPTVLKALSSAGGSAGGSAGG [r11_934_TrMRF] — lower, < -4.18 kJ/mol
- SKEILEAEVEEILKLLPESLKPDVPRELVFPGVKITVTKYEPVDKNKGGKKPTTVVTIELPEGPVTIPLPSA [r9_279_JUSTAS] — within error, -2.22 ± 0.753 kJ/mol
- SAGMSLKLEVPIDGHMIEVTVHPSPPRATAKYPEFDATAEATISEPGLINLTITDPKTGKPYPLDVTLPSAG [r14_656_JUSTAS] — higher, 0.636 ± 0.418 kJ/mol
- SAGGSAGGSSPPVVTVEKYSEEPSPGVLRAVIRHPDGKEIVVTFEDLSPEEAKARAEEVAKLGSAGGSAGGS [r20_181_JUSTAS] — lower, < -4.18 kJ/mol
- SAGGSAGGSAGGMPLNFSTVETEELPELGATVTTSTAPGYILTETRTPEGVEVQRYPALLSAGGSAGGSAGG [r7_280_JUSTAS] — higher, 0.452 ± 0.837 kJ/mol
- SAGGSAMEVKIIPGSKEAIINDPENGKPIPATIIEIEPIEPDKNLFKAKVKIPSNGGWKEVLVDLGSAGGSA [r15_209_TrMRF] — lower, < -4.18 kJ/mol
- SAGGSAGGSAGMTLEEIEELLKKEGIDPSTLGNEKIAEIIKKKNPNTTITSSPEGTGYISKSAGGSAGGSAG [r3_375_JUSTAS] — lower, < -4.18 kJ/mol
- SAGGSAGGSMPPEELRKKILEDPNVEVLSIEPPGPEVTLITTKYPRETETPTTETVTEKLPVPLSAGGSAGG [r6_154_JUSTAS] — within error, -2.38 ± 1.38 kJ/mol
- SAGGSAGGSAGGALVVEVEVEGERRTLVVPVPDEIPPGAEEVAKKLGLKDAKVKIAPLDLSAGGSAGGSAGG [r11_219_TrMRF] — lower, < -4.18 kJ/mol
- SAGGSAGGSAGGTIRDAVKEGKPFKIRMRGKKGKTHTVTIRPDKPVKLPGISSIQVERDSAGGSAGGSAGGS [r10_700_TrROS] — within error, -2.96 ± 3.35 kJ/mol
- SAGGSAGGSAGKKVVTIDIPIDNPEELEVAEEIAREAAKELGVPPEEIPVTWEGNYLRIESAGGSAGGSAGG [r11_218_TrMRF] — lower, < -4.18 kJ/mol
- SAGGSASLDIVEELIEEEIKDSKGTKIKILKPIIYYPGKGLVLSNVTVYKPDGTKISTEKKIEPVGSAGGSA [r15_967_JUSTAS] — lower, < -4.18 kJ/mol
- SKTVEIPIRNPNGMQVNIMANPEKGKVMIHMGNNMPFENIKKALRELLPPGKDVDITTHPNGMAVIELKPSA [r9_933_TrROS] — within error, -3.07 ± 1.8 kJ/mol
- SAGSSSTTIEVPVGDPAKAGSVEEYKEKLIKEGFSESDVPTATPLPDGTRLVTFKSPSTTVTLVVPLGESAG [r5_144_JUSTAS] — lower, -3.54 ± 0.837 kJ/mol
- SAGEELLREIAKKLNLPEGAEIVKVEIKVEEKDGRLRITITITVRNKETGELKTIEIEIEIELPEEEEESAG [r5_94_TrROS_Hall] — higher, 16.8 ± 1.8 kJ/mol
- SAGKNPGPVLILADGGEEGVKAVAYFPDGPLETEFPGSGDIAIVIPPGLTPSDVLKAAAVALKEAAESSAGG [r19_170_TrMRF] — the same, -1.41 ± 1 kJ/mol
- SAGGSEKLLEEIKEKEFNIPPFIDPKTGKEYPGAKVKVKEAKKIKDTKKIKLIVETPEGKHEFILGSAGGSA [r2_314_TrMRF] — lower, < -4.18 kJ/mol
- SAGGSAGGSASMTITLPGMSLEEAKAAAEAHPDHPVLLETPEGRLIEITPEGVVTVRPLPESAGGSAGGSAG [r3_269_JUSTAS] — lower, -3.92 ± 0.711 kJ/mol
- SAGGSAGGSGNPDTPTSPVFVVIEKTTTVVPAPNGLYPKRTSVKISIPGGAAAGAEELIAELLSAGGSAGGS [r12_933_JUSTAS] — lower, < -4.18 kJ/mol
- SAGGSAGGSAGGNEDDNVPIGEKTVVKKVPPSSPVTITETIYRRPSTGTTSTTEKVIIESAGGSAGGSAGGS [r10_6_JUSTAS] — lower, < -4.18 kJ/mol
- SAGGMEVVENPGGNLKIIEKEPEGPEFVKTTTTTIKTFKNPGGSTSSTITTTTTTVKISKSKNPELLSAGGS [r16_802_JUSTAS] — lower, -3.28 ± 1.26 kJ/mol
- SAGGMKVEVVETPTSLQIVTTTISTEKIPFNDVTLTTVTTEVKTIPLPEKPPVGLPYFDPEGKPLLLSAGGS [r8_46_JUSTAS] — within error, -1.77 ± 0.753 kJ/mol
- SAGGSMVTETLSVEETVEPLPDGLVRVPVRTEIRVTRKDPTTGKWTTELRTEEVVLVVPASGLEAASAGGSA [r2_184_JUSTAS] — higher, 0.816 ± 0.222 kJ/mol
- SAGGSAGGSAGMKIIVKSKEEAEKIAKEIAKKLGIEKKIKKIEIIVIPYKKTKDGKIEKISAGGSAGGSAGG [r17_237_TrROS_Hall] — within error, -0.772 ± 2.55 kJ/mol
- SAGGSAGGSAGLNITYTTTITYPDGTVVTEPVVSSGSLEEAIARARELEKKHPNVEVEVSPEGSAGGSAGGS [r12_268_JUSTAS] — within error, -0.475 ± 0.962 kJ/mol
- SAGMVKVSLEKNPNGTPVVTVDVNEEGGPPVTVTLPVDPNETLSKVSAVLKKEGYPLPAGKKISELLSSAGG [r19_263_JUSTAS] — lower, < -4.18 kJ/mol
- SAGGSAGGMNKIKVTTSVTTFEETVLAGNKTFTVTLLKKTTTITDPNSSKVTTITETKSPEELSSAGGSAGG [r6_752_JUSTAS] — within error, -0.563 ± 1.13 kJ/mol
- SAGGSADSVMIPVESPEEIKEELQEGPPKRVELPNPDGERYWIQIDWDDPENIEVMPPDDPEKMKPSAGGSA [r15_11_TrROS] — higher, 0.367 ± 1.17 kJ/mol
- SAGGSIIIRGPSPDQAEEAARAFAKNFREQFPENPNMEIPVKVEYEDPENGQRQEYEAEIKIPYPDSAGGSA [r2_393_TrROS] — lower, < -4.18 kJ/mol
- SAGGSAGGSMVYVVKVEIPETGEEYEFLNPEDKETVEREVRELFPDPEVKAEIEEIEVEPELLSAGGSAGGS [r12_92_TrMRF] — lower, < -4.18 kJ/mol
- SAGGMMKIKITFADGTTKEIELPEDVTEVTITYDEKTGKVTITVRLKNGETKTITIPADKITKIEIESAGGS [r16_658_TrROS_Hall] — higher, > 25.1 kJ/mol
- SAGGSAGGSAGTTTKITEIKELPTDYVELTMKYPDGTTIKKLIPKSIYKDLPVSSTFSGGSAGGSAGGSAGG [r11_943_JUSTAS] — lower, < -4.18 kJ/mol
- SAPDNIKVDINIERNPEDGHIRVEMEIEYPDGNEVYHSAWIDPDNGKIEIDVQVPNGKQIAEETIQIKPSAG [r14_524_TrROS] — lower, < -4.18 kJ/mol
- SAGGHRMDIQFDGSPDKIEEIQKKIHKKWPDYKVDDIEVNPGNPDQVTIRIEMDNGIPMNEIQEALMSAGGS [r16_180_TrROS] — lower, < -4.18 kJ/mol
- SMRLVPVPVRSADGRASVDEIRAAIREALPEGLRVDFGEEFIERALREAERRYGGRLRPDDFPILVPVLGSA [r9_197_TrMRF] — lower, < -4.18 kJ/mol
- SAGGSAGGKIRILEEEEDPANGERRLMVMVHNPKGKPHQYPVPLDDADEILEHLPPGMPVEIYPSAGGSAGG [r6_113_TrROS] — within error, -2.15 ± 4.06 kJ/mol
- SAGGSAGGSAGMPPNTVVLRESLEPGRVVLTLAVVTPGSVASVEVTEEFPVVPGTGVVVGSAGGSAGGSAGG [r11_66_JUSTAS] — higher, 0.582 ± 0.544 kJ/mol
